Measurements as given in doi:10.1101/2022.02.05.479199.

Target: RPA-DBD-D-Cy3;Rtt105-Cy5 (C13S) C13S (Saccharomyces cerevisiae;Saccharomyces cerevisiae?) (UniProt P22336+P26754+P26755+P40063)
Test: FRET titration

Sequence of RPA-DBD-D-Cy3;Rtt105-Cy5 (C13S) C13S (Saccharomyces cerevisiae;Saccharomyces cerevisiae?) (P22336 whole entry, chain 1 of 4): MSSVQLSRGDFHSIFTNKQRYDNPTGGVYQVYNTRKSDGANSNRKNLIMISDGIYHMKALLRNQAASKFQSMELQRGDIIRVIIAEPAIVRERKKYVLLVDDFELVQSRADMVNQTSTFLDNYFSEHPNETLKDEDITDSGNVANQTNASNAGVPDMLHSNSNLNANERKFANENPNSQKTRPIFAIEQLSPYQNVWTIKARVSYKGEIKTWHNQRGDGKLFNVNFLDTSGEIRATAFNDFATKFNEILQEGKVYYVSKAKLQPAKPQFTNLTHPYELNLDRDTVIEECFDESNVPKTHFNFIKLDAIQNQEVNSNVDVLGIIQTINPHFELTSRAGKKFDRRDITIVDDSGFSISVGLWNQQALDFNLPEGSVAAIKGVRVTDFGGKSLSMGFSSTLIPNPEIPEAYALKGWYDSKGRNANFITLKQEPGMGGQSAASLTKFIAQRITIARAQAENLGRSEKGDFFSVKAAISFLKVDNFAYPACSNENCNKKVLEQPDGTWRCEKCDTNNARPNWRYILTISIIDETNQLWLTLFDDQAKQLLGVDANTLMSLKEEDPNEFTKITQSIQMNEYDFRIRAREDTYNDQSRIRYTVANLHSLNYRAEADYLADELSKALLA
Sequence of RPA-DBD-D-Cy3;Rtt105-Cy5 (C13S) C13S (Saccharomyces cerevisiae;Saccharomyces cerevisiae?) (P26754 whole entry, chain 2 of 4): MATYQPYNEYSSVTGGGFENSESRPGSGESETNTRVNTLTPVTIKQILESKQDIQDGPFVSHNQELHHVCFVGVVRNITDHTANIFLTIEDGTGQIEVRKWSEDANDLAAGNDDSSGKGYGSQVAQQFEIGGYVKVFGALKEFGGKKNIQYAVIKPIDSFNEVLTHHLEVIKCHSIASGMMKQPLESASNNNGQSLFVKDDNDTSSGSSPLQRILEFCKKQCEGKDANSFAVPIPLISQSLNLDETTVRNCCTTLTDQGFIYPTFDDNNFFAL
Sequence of RPA-DBD-D-Cy3;Rtt105-Cy5 (C13S) C13S (Saccharomyces cerevisiae;Saccharomyces cerevisiae?) (P26755 whole entry, chain 3 of 4): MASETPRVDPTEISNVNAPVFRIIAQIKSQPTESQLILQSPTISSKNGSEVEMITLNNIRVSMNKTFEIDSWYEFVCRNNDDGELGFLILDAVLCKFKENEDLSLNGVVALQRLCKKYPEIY
Sequence of RPA-DBD-D-Cy3;Rtt105-Cy5 (C13S) C13S (Saccharomyces cerevisiae;Saccharomyces cerevisiae?) (P40063 whole entry C13S, chain 4 of 4): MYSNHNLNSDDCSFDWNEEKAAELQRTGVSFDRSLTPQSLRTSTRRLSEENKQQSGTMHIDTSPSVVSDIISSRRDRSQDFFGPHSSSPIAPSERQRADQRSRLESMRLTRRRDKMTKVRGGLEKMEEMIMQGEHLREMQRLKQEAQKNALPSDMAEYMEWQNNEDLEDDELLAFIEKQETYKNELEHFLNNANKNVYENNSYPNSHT

Row | Sequence | K half [nM]
1 | TTTTTTTTTTTTTTTTTTTTTTTTTTTTTTTTTTT [(dT)35] | 130
2 | TTTTTTTTTTTTTTTTTTTTTTTTTTTTTTTTTTTTTTTTTTTTTTTTTTTTTTTTTTTTTTTTTTTTTT [(dT)70] | 42.8
